The source of these data is patent publication US20240052037A1 (BEIJING HANMI PHARMACEUTICAL, published 2024).

The experiment concerns the target T1, CD47 on cells (HCC827 tumor cells; red blood cells from healthy people) (human, UniProt Q08722 19-323).
T1 construct: whole, on cells; Endogenous CD47 on human cells
In words: flow cytometry on mixed HCC827 cells and red blood cells. A general note: In flow cytometry, cells or beads pass a laser one at a time.

T1 sequence (Q08722 19-323): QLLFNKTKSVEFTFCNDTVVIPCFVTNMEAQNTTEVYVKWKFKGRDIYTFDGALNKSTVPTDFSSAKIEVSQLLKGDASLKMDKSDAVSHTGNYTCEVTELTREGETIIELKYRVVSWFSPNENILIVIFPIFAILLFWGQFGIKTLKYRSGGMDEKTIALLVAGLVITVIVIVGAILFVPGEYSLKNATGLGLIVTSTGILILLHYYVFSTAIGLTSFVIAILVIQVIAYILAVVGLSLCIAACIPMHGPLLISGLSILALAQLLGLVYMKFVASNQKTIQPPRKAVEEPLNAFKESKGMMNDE
Procedure: HCC827 tumor cells express PD-L1 and CD47, but red blood cells (RBCs) express only CD47. HCC827 cells and RBCs were mixed together, and flow cytometry (FCM) was used to detect whether the heterodimer was selective for the binding to the two cells in the mixed cells.
The specific implementation process of this method is as follows. […] Flow tubes were incubated on ice for 30 minutes. The cells were washed twice with PBS containing 2% FBS. Then the pellets were resuspended in 200 μL of cold PBS containing 2% FBS and FITC-labeled anti-human IgG antibody diluted 1:1000 (Beijing Zhongshan Golden Bridge, Catalog number ZF0306), incubated on ice for 30 minutes in the dark. The cells were washed twice with PBS containing 2% FBS, then resuspended in 500 μL of cold PBS. The cell suspension obtained was detected and analyzed on a flow cytometer (BD, FACS Calibur), and the respective fluorescence intensities of the two cells in the mixed cells were read.

B1: CD47 monoclonal antibody (heavy and light chain variable region sequences of the humanized sequences z11 of the antibody CD47-18-5 and the constant region … (antibody, V domains shown)
VH: QVQLVQSGAEVKKPGSSVKVSCKASGFNIEDIYMHWVRQAPGQGLEWMGRIDPANDNTKYGPKLQGRVTITADTSTNTAYMELSSLRSEDTAVYYCVRRIPTDIMDYWGQGTTVTVSS
VL: DIQMTQSPSSLSASVGDRVTITCKASQNVRTSIAWYQQKPGKAPKTLIYLASNRHTGVPSRFSGSGSGTEFTLTISNLQPEDFATYYCLQHWNYPFTFGQGTKLEIK
notes: also called anti-CD47 monoclonal antibody
For B1, the binding result is “binds”.
